# B1: sCD31: soluble form of CD31; murine sCD31 with SEQ ID NO: 3 (protein)
# chain: MLLALGLTLVLYASLQAEENSFTINSIHMESLPSWEVMNGQQLTLECLVDISTTSKSRSQHRVLFYKDDAMVYNVTSREHTESYVIPQARVFHSGKYKCTVMLNNKEKTTIEYEVKVHGVSKPKVTLDKKEVTEGGVVTVNCSLQEEKPPIFFKIEKLEVGTKFVKRRIDKTSNENFVLMEFPIEAQDHVLVFRCQAGILSGFKLQESEPIRSEYVTVQESFSTPKFEIKPPGMIIEGDQLHIRCIVQVTHLVQEFTEIIIQKDKAIVATSKQSSEAVYSVMAMVEYSGHYTCKVESNRISKASSIMVNITELFPKPKLEFSSSRLDQGELLDLSCSVSGTPVANFTIQKEETVLSQYQNFSKIAEESDSGEYSCTAGIGKVVKRSGLVPIQVCEMLSKPSIFHDAKSEIIKGHAIGISCQSENGTAPITYHLMKAKSDFQTLEVTSNDPATFTDKPTRDMEYQCRADNCHSHPAVFSEILRVRVIAPVDEVVISILSSNEVQSGSEMVLRCSVKEGTSPITFQFYKEKEDRPFHQAVVNDTQAFWHNKQASKKQEGQYYCTASNRASSMRTSPRSSTLAVRVFL
# modifications: Soluble CD31 (sCD31)
# How the values were obtained:
# IL-10 = IL-10 levels in mice after intravenous injection (plasma ELISA); conditions: mouse
# Experimental: To test whether the anti-inflammatory properties of agonistic anti-CD38 antibodies were also observe in vivo, we intravenously injected anti-CD38 antibody clone HB7 (15 mg/kg) to mice.
# Blood samples collected in collection tube (Microvette® 500 EDTA-K3, […]) were centrifuged at 3000 rotations per minute during 15 minutes. Supernatants (plasma) were collected and transferred into tubes and froze at −80° C. for further analysis. IL-10 levels in plasma samples were assayed using an ELISA IL-10 kit (BioLegend®) according to the indications for use specified by the manufacturer.
# [1] = system: midbrain dopaminergic (TH+) neurons; test: MPP+ intoxication model in midbrain cell cultures, survival of DA (TH+) neurons; type: cell-based, Wistar rat
# Experimental: For this purpose, spontaneously occurring DA cell death was prevented by a treatment combining depolarizing concentrations of K^+ (30 mM) and MK801 (5 μM), a glutamate receptor antagonist used to prevent unwanted excitotoxic insult. The cultures were then exposed to 3 μM MPP between 5 and 7 days in vitro (DIV) to achieve a loss of approximately 50% of DA neurons.
# Animals were treated in accordance with the Guide for the Care and Use of Laboratory Animals (National Research Council, 1996), European Directive 86/609, and the guidelines of the local institutional animal care and use committee. Cultures were prepared from the ventral mesencephalon of gestational age 15.5 Wistar rat embryos (Janvier Breeding Center, Le Genest St Isle, France). Dissociated cells in suspension obtained by mechanical trituration of midbrain tissue pieces were seeded at a density of 1.2-1.5×10^5 cells/cm^2 onto tissue culture supports precoated with 1 mg/mL polyethylenimine diluted in borate buffer pH 8.3 as described (Michel et al., 1997. J Neurochem. 69(4):1499-507). The cultures were then maintained in N5 medium supplemented with 5 mM glucose, 5% horse serum, and 0.5% fetal calf serum, except for the first 3 DIV, when the concentration of fetal calf serum was 2.5% to favor initial maturation of the cultures (Guerreiro et al., 2008. Mol Pharmacol. 74(4):980-9). They were fed daily by replacing 70% of the medium. Routinely, mesencephalic cultures were established on Nunc 24-well culture plates (Thermofischer Scientific, Rochester, N.Y.). Note that these cultures contain tyrosine hydroxylase (TH)^+ neurons that were exclusively dopaminergic (Traver et al., 2006. Mol Pharmacol. 70(1):30-40). TH^+ neurons represented approximately 1-2% of the total number of neuronal cells present in these cultures. The evaluation of the survival of DA neurons was performed by counting cells immunopositive for TH as described (Toulorge et al., 2011. Faseb J. 25(8):2563-73).
# Treatments with MPP were performed in cultures where the spontaneous death process was prevented by long-term exposure to depolarizing concentrations of K^+ (30 mM), in the presence of the glutamate receptor antagonist MK801 (5 μM) to prevent unwanted excitotoxic insults as described previously (Douhou et al., 2001. J Neurochem. 78(1): 163-74). Treatments with MPP and potential neuroprotective molecules were carried out between 5 and 7 DIV.
# The cultures were fixed for 12 min using 4% formaldehyde in Dulbecco's phosphate-buffered saline (PBS), then washed twice with PBS before an incubation step at 4° C. for 24 h with the following antibodies. A monoclonal anti-TH antibody diluted 1/5000 (ImmunoStar, Inc., Hudson, Wis.) was used to assess the survival of DA neurons. Antibody was diluted in PBS containing 0.2% Triton X-100. Detection of the primary antibodies was performed with an Alexa Fluor-488 conjugate of an anti-mouse IgG antibody.
molecule,measurement,setting,value
B1,release of IL-10 in vivo (conclusion in words),IL-10,strong release
same,EC50 of prevention of MPP+-induced DA cell loss,"[1]; 3 μM MPP+ between 5 and 7 DIV, sCD31 during the intoxication period",0.036 µg/mL
same,neuroprotective effect against MPP+-induced DA cell death,"[1]; 3 μM MPP+ between 5 and 7 DIV, test substance up to 1 μg/mL",prevented
same,neuroprotective effect in the presence of antagonistic anti-CD38 antibody clone AT13/5,"[1]; 3 μM MPP+, test substance 1 μg/mL, AT13/5 1 μg/mL",antagonized
same,neuroprotective effect in the presence of anti-CD31 antibody clone Moon-1,"[1]; 3 μM MPP+, test substance 1 μg/mL, Moon-1 1 μg/mL",antagonized
same,neuroprotective effect in the presence of antagonistic anti-CD38 antibody clone OKT10,"[1]; 3 μM MPP+, test substance 1 μg/mL, OKT10 1 μg/mL",antagonized
same,neuroprotective effect in the presence of endosidin2,"[1]; 3 μM MPP+, test substance 1 μg/mL, endosidin2 40 μM",antagonized
same,neuroprotective effect in the presence of the tyrosine kinase inhibitor genistein,"[1]; 3 μM MPP+, test substance 1 μg/mL, genistein 10 nM",antagonized
same,neuroprotective effect in the presence of the lysosomal exocytosis inhibitor vacuolin-1,"[1]; 3 μM MPP+, test substance 1 μg/mL, vacuolin-1 10 μM",antagonized

# From patent US20220089765A1, “CD31 COMPETITORS AND USES THEREOF” (ENCEFA, priority 2019, published 2022)
